From patent publication US10081665B2, “Peptides and combination of peptides for use in immunotherapy against various tumors” (immatics biotechnologies GmbH, priority 2015, dated 2018)

biological target: HLA-A*02:01 (Homo sapiens, UniProt P04439, D140Y/D185E/D98H/E176V/E277Q/G131W/G231S/I119V/I121R/I166T/I218V/L300P/L318F/N151K/N90K/P208A/P217A/Q86G/Q94H/R138H/R169H/T345S); test: MHC binding assay (UV-ligand exchange, beta2m ELISA); conditions: binding to HLA-A*02:01, β2m ELISA
In short: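 Peptide-MHC complexes made by UV-ligand exchange of a UV-cleavable peptide for test peptide; exchange yield measured by β2m ELISA on streptavidin-coated plates with samples diluted 100-fold, HRP anti-β2m and TMB read at 450 nm. Refolded HLA-A*02:01/MLA-001 monomers (15-500 ng/ml) served as standards.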

Q: With “88 (LLLPLELSLA; listed as Homo sapiens) [compound 88]” as the substance, how does the “Peptide exchange (MHC class I binding score, peptide exchange yield)” value (shortened to “Peptide exchange”) read?
A: +++ (≥50 = +++)

Q: How did the “Peptide exchange” value turn out when “67 (FLIENLLAA; listed as Homo sapiens) [compound 67]” was run?
A: +++ (≥50 = +++)

Q: How did the “Peptide exchange” value turn out when “256 (FLNDIFERI; listed as Homo sapiens) [compound 256]” was run?
A: +++ (≥50 = +++)

Q: “113 (FLFLKEVKV; listed as Homo sapiens) [compound 113]” was tested. Which “Peptide exchange” value did it give?
A: ++ (≥20% = ++)

Q: Which “Peptide exchange” value does the source give for “269 (GLLDCPIFL; listed as Homo sapiens) [compound 269]” here?
A: ++++ (≥75% = ++++)

Q: “23 (ALLSPLSLA; listed as Homo sapiens) [compound 23]” was tested. Which “Peptide exchange” value did it give?
A: +++ (≥50 = +++)

Q: Which “Peptide exchange” value does the source give for “238 (HLQEKLQSL; listed as Homo sapiens) [compound 238]” here?
A: ++ (≥20% = ++)

Q: “271 (VLIEYNFSI; listed as Homo sapiens) [compound 271]” was tested. Which “Peptide exchange” value did it give?
A: +++ (≥50 = +++)

Q: For “215 (QIADIVTSV; listed as Homo sapiens) [compound 215]”, which “Peptide exchange” value is on record?
A: ++ (≥20% = ++)

Q: Which “Peptide exchange” value does the source give for “3 (RVIDDSLVVGV; listed as Homo sapiens) [compound 3]” here?
A: +++ (≥50 = +++)

Q: How did the “Peptide exchange” value turn out when “270 (TLLTFFHEL; listed as Homo sapiens) [compound 270]” was run?
A: +++ (≥50 = +++)

Q: “261 (GLAALAVHL; listed as Homo sapiens) [compound 261]” was tested. Which “Peptide exchange” value did it give?
A: +++ (≥50 = +++)

Q: With “200 (IMPTFDLTKV; listed as Homo sapiens) [compound 200]” as the substance, how does the “Peptide exchange” value read?
A: +++ (≥50 = +++)

Q: For “55 (HLFDKIIKI; listed as Homo sapiens) [compound 55]”, which “Peptide exchange” value is on record?
A: +++ (≥50 = +++)

Q: With “198 (ILTNKVVSV; listed as Homo sapiens) [compound 198]” as the substance, how does the “Peptide exchange” value read?
A: ++ (≥20% = ++)

Q: With “111 (AQLEGKLVSI; listed as Homo sapiens) [compound 111]” as the substance, how does the “Peptide exchange” value read?
A: +++ (≥50 = +++)

Q: How did the “Peptide exchange” value turn out when “13 (RLHDENILL; listed as Homo sapiens) [compound 13]” was run?
A: +++ (≥50 = +++)

Q: How did the “Peptide exchange” value turn out when “175 (SLLDLVQSL; listed as Homo sapiens) [compound 175]” was run?
A: +++ (≥50 = +++)

Q: With “217 (LLWPSSVPA; listed as Homo sapiens) [compound 217]” as the substance, how does the “Peptide exchange” value read?
A: +++ (≥50 = +++)

Q: With “85 (KLLDKPEQFL; listed as Homo sapiens) [compound 85]” as the substance, how does the “Peptide exchange” value read?
A: ++ (≥20% = ++)

Q: For “173 (RLIDIYKNV; listed as Homo sapiens) [compound 173]”, which “Peptide exchange” value is on record?
A: +++ (≥50 = +++)

Q: How did the “Peptide exchange” value turn out when “228 (SLLELDGINLRL; listed as Homo sapiens) [compound 228]” was run?
A: +++ (≥50 = +++)

Q: With “122 (SIIDTELKV; listed as Homo sapiens) [compound 122]” as the substance, how does the “Peptide exchange” value read?
A: +++ (≥50 = +++)

Q: For “129 (KMASKVTQV; listed as Homo sapiens) [compound 129]”, which “Peptide exchange” value is on record?
A: ++ (≥20% = ++)

Q: “6 (FLNAIETAL; listed as Homo sapiens) [compound 6]” was tested. Which “Peptide exchange” value did it give?
A: ++++ (≥75% = ++++)

Q: With “187 (SILKEDPFL; listed as Homo sapiens) [compound 187]” as the substance, how does the “Peptide exchange” value read?
A: ++ (≥20% = ++)

Q: “151 (DISKRIQSL; listed as Homo sapiens) [compound 151]” was tested. Which “Peptide exchange” value did it give?
A: ++ (≥20% = ++)

Q: “220 (ALSELERVL; listed as Homo sapiens) [compound 220]” was tested. Which “Peptide exchange” value did it give?
A: +++ (≥50 = +++)
